Measured values published in paper PMC7948479, “Allostery in the nitric oxide dioxygenase mechanism of flavohemoglobin” (The Journal of Biological Chemistry, 2020).
Like-named read-outs stand apart in the source and are kept apart here.

Columns and labels:
E. coli growth = system: E. coli growth; parameters: method as in PMID 11751865; conditions: atmosphere containing 5 μM O2 and 0.5 μM NO; cited from earlier work
E. coli flavoHb = E. coli flavoHb (Escherichia coli, UniProt P24232); conditions: cited from earlier work
Ngb = Ngb reductase activity; assay type: biochemical, murine; conditions: 37 °C; 5 μM Ngb; anaerobic
Description: Reagents were purchased from Sigma-Aldrich Chemical Co (St Louis, MO, USA) unless otherwise stated. DNA primers were synthesized at the University of Cincinnati Medical Center DNA facility. Praxair (Bethlehem, PA, USA) was the supplier of 99.993% O2, 99.999% CO, and 99.98% N2. Bovine liver catalase (260,000 U/ml) was obtained from Roche Applied Science. Recombinant rat cytochrome b5 (soluble form) and murine Ngb were expressed in E. coli and purified essentially as described ([10], [70]). NADH purity (≥95%) was assessed by the ratio of the 340 to 260 nm absorbance with a value of 0.437 equal to 100% reduced.

flavoHb = system: flavoHb; parameters: method as in PMID 22948361; conditions: cited from earlier work
E. coli flavoHb-NOD [1] = target: E. coli flavoHb-NOD (Escherichia coli, UniProt P24232); assay type: biochemical; parameters: made in house; host or cells: E. coli hmp deletion strain AG103 carrying pUC19hmp
Description: We have formulated a steady-state velocity equation for the catalytic cycle with the activating trigger step (KT) (Equation 1).(1) v= Vmax(a) where a=([NO]^2[O2]^2/K1K2K3KTK4)/(1+([O2]/K1)+([O2]^2/K1K2)+(([O2]^2[NO])/K1K2K3)+(([O2]^2[NO])/K1K2K3KT)+(([O2]^2[NO]^2)/K1K2K3KTK4))
(2) v= Vmax(a)(b) where b=[NO]/(K3+([NO](1+((K2/[O2])(1+([NO]/Ki(NO)))))))
In addition, we have introduced a factor and equilibrium constant Ka(O2) for rare situations in which O2 causes an additional NO-independent activation of catalysis possibly by occupying unique binding sites or cavities (Equation 5).
(§1) NOD activity was measured amperometrically in 100 mM phosphate buffer, pH 7.0, containing 0.3 mM EDTA, 100 μg/ml bovine serum albumin (BSA) (Fraction V), 100 μM NADH, 0.1 μM FAD with NO, O2, and N2 mixtures added as described ([4], [72]). NADH oxidase activity was followed spectrophotometrically at 340 nm in a 1.0-ml cuvette containing 90 mM Tris chloride buffer, pH 8.2, 100 μM NADH, 200 μM O2, 0.1 μM FAD, 100 μg/ml BSA, and 0.3 mM EDTA and incubated at 37 °C. Cytochrome b5 reductase activity was assayed at 37 °C by following the rate of absorbance increase at 555 nm in a 1.0-ml reaction buffered with 90 mM Tris chloride, pH 8.2, and containing 10 μM ferric cytochrome b5, 200 μM O2, 20 μM NADH, 0.1 μM FAD, 100 μg/ml BSA, and 0.3 mM EDTA. TMAO reductase activity was assayed by following the absorbance decrease at 340 nm in a 1.0-ml anaerobic reaction containing 12 U Aspergillus niger glucose oxidase, 5 mM glucose, 260 U catalase, 400 mM TMAO, 100 μM NADH, 0.1 μM FAD, 100 μg/ml BSA, and 0.3 mM EDTA in 90 mM Tris chloride pH 8.2 and incubated at 37 °C. Ngb reductase activity was assayed by following the absorbance increase at 424 nm in a 1.0-ml anaerobic reaction containing 12 U glucose oxidase, 5 mM glucose, 260 U catalase, 5 μM Ngb, 50 μM NADH, 0.1 μM FAD, 100 μg/ml BSA, and 0.3 mM EDTA in 90 mM Tris chloride buffer, pH 8.2, and incubated at 37 °C. Methyl viologen reductase activity was assayed by following the formation of the blue cation radical at 603 nm and by applying an extinction coefficient of 13,300 M^−1 cm^−1 in a 1.0-ml anaerobic reaction buffered with 10 mM potassium phosphate, pH 7.0, and containing 12 U glucose oxidase, 5 mM glucose, 260 U catalase, 100 μM NADH, 0.1 μM FAD, 100 μg/ml BSA, 0.3 mM EDTA, and 200 mM sodium chloride and incubated at 37 °C. NO reductase activity was assayed amperometrically at 37 °C in a 1.0-ml anaerobic reaction containing 2 μM NO, 100 μM NADH, 0.1 μM FAD, 12 U glucose oxidase, 5 mM glucose, 260 U catalase, 100 μg/ml BSA, and 0.3 mM EDTA buffered with 10 mM potassium phosphate pH 7.0. CO effects were tested at a final concentration of 50 μM as diluted from a 1 mM stock in water. All activities are reported relative to the heme content of flavoHb.
Rate constants were estimated from the model kinetic equation using Python programming with successive approximations to optimize fits with varying NO and O2 concentrations. Vmax, K1, K2, KT, and Kii(NO) values were treated as independent variables for a given flavoHb while allowing K3, K4, and Ki(NO) to vary over limited ranges with varying O2 concentration. Kii(NO) was estimated from NO inhibition at saturating O2 concentrations.

E. coli flavoHb-NOD [2] = system: E. coli flavoHb-NOD
Method: as §1

B1: WT: wild-type E. coli flavohemoglobin (flavoHb), an NO dioxygenase (NOD) (protein, UniProt P24232 1-396, looked up)
Flavohemoprotein: MLDAQTIATVKATIPLLVETGPKLTAHFYDRMFTHNPELKEIFNMSNQRNGDQREALFNAIAAYASNIENLPALLPAVEKIAQKHTSFQIKPEQYNIVGEHLLATLDEMFSPGQEVLDAWGKAYGVLANVFINREAEIYNENASKAGGWEGTRDFRIVAKTPRSALITSFELEPVDGGAVAEYRPGQYLGVWLKPEGFPHQEIRQYSLTRKPDGKGYRIAVKREEGGQVSNWLHNHANVGDVVKLVAPAGDFFMAVADDTPVTLISAGVGQTPMLAMLDTLAKAGHTAQVNWFHAAENGDVHAFADEVKELGQSLPRFTAHTWYRQPSEADRAKGQFDSEGLMDLSKLEGAFSDPTMQFYLCGPVGFMQFTAKQLVDLGVKQENIHYECFGPHKVL
protection of E. coli growth (E. coli growth): fully protects
kET previously reported (E. coli flavoHb): 136 s⁻¹
Ngb reductase activity (Ngb): 0.20 s⁻¹
kET by time-resolved pulse radiolysis (flavoHb): 6800 s⁻¹
Vmax/K3 (E. coli flavoHb-NOD [1]): 2.3e+09 M⁻¹ s⁻¹
bimolecular rate constant of ferric–superoxide complex with internalized NO (E. coli flavoHb-NOD [1]): 10^10 M^−1 s^−1
k'NOD estimated from the Vmax/K4 ratio (E. coli flavoHb-NOD [1]): 1 to 2 × 10^10 M^−1 s^−1
velocity of NOD activity (E. coli flavoHb-NOD [1]): 8 s⁻¹
Ki (E. coli flavoHb-NOD [1]; read-out: Ki(NO) for NO competition with O2 for LT entry): 300 to 1200 nM
Δv/Δ[NADH] (E. coli flavoHb-NOD [2]; 20 °C): 36 s⁻¹ µM⁻¹
Δv/Δ[NADH] (E. coli flavoHb-NOD [2]; 20 °C, 130 nM NO): 30 s⁻¹ µM⁻¹
Δv/Δ[NADH] (E. coli flavoHb-NOD [2]; 37 °C): 59 s⁻¹ µM⁻¹
Δv/Δ[NADH] (E. coli flavoHb-NOD [2]; 37 °C, 130 nM NO): 59 s⁻¹ µM⁻¹
